Blank lines part the entries; values can stand above or below the molecule they belong to. Where a SMILES comes first, the peptide text is derived from it. The star is where a group is joined. Cbz = O=C(OCc1ccccc1)*
What was measured:
[1] = tested on: proteasome; assay: PGAM5(Δ24) ubiquitination in HeLa cells; format: cell-based; details: HA-Ubiquitin and PGAM5(Δ24)-Myc
Procedure: HeLa cells are transiently co-transfected with HA-Ubiquitin, PGAM5(Δ24)-Myc, with or without XIAP or the treatment of MG132. Ubiquitination of PGAM5(Δ24)-Myc are addressed by immunoprecipitating with Myc antibody then blotting with HA antibody.
HeLa cells were transfected with Lipofectamine 2000 (Invitrogen). Cells were lysed either in M-PER mammalian protein extraction buffer (Thermo) or NP40 buffer (50 mM HEPES pH 7.4, 150 mM NaCl, 1% NP40), supplemented with protease inhibitor cocktail (Thermo). 10% SDS-polyacrylamide gel (PAGE) combined with MOPS running buffer was used to separate full length PGAM5 from the truncated form for immuno-blotting analysis. 4-12% SDS-PAGE gels were generally used for all other analysis. Immuno-precipitation with anti-Myc tag antibody (cell signaling) was performed with a standard procedure using manufacture's instructions.

[2] = tested on: Jurkat and HeLa cells; assay: Cytosolic PGAM5(Δ24) immunoblot in apoptotic cells; format: cell-based; details: 1 μM STS, 4 hours
[3] = biological target: XIAP (Homo sapiens, UniProt P98170); assay: In vitro PGAM5 ubiquitination assay with XIAP; format: biochemical; details: 50 nM UBE1, 200 nM UbcH5b, 700 nM XIAP, 1.5 μM PGAM5-His6
Sequence of XIAP (P98170 whole entry, the tested form may be a part): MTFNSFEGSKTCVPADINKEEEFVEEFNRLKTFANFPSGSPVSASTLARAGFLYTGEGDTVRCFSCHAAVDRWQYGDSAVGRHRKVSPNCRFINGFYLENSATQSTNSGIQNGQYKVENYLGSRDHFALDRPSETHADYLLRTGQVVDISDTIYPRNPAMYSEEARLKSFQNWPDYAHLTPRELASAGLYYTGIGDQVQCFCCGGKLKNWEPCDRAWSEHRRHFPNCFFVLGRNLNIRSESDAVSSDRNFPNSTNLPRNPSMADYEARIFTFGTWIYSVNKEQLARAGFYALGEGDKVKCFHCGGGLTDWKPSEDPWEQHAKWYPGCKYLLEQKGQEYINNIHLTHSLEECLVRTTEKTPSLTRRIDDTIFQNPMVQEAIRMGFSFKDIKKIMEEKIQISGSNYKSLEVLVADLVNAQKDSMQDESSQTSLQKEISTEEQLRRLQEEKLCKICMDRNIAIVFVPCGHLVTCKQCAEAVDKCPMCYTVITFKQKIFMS
Description: (§1) FIG. 12 illustrates the identification of the proteolytic form of PGAM5 as an XIAP and cIAP1 substrate in vitro. […] Overall, 15 unique peptides from PGAM5 were recovered and account for 43% of the entire protein sequence. (B) An example of LC-MS/MS spectrum from endogenous PGAM5 N-terminal peptide after subtiligase labeling and positive enrichment. A non-natural amino acid, 2-aminobutyric acid (Abu), is a designed tag showing characteristic labeling by subtiligase. (C) PGAM5 is cleaved into a truncated form in cells. Jurkat cells were transiently transfected with C-terminal Myc tagged full length PGAM5 or PGAM5 (Δ2-24). […] (D) N-terminal amino acid sequence alignment of PGAM5(Δ24) and other known evolutionarily conserved IBM sequences. Reaper, Hid, and Grim are Drosophila proteins that bind DIAP1, the Drosophila IAP. Amino acids are colored according to their chemical properties. (E) XIAP binds PGAM5(Δ24) but not the full length PGAM5. Recombinant GST fused XIAP, PGAM5(FL), and PGAM5(Δ24) were used for in vitro GST pull down experiments. (F) PGAM5(Δ24) binds to XIAP and cIAP1 independent of the RING domain. […] The resins were washed and proteins were eluted and analyzed with SDSPAGE and coomassie blue staining. […] The ubiquitination assay was performed in vitro and PGAM5 is detected with an anti-His antibody. […]

[4] = biological target: T1, cIAP1 (Homo sapiens, UniProt Q13490); assay: In vitro PGAM5 ubiquitination assay with cIAP1; format: biochemical; details: 50 nM UBE1, 200 nM UbcH5b, 700 nM cIAP1, 1.5 μM PGAM5-His6
T1 construct: expressed in transfected cells; host or cells: HEK293
T1 sequence (Q13490 whole entry): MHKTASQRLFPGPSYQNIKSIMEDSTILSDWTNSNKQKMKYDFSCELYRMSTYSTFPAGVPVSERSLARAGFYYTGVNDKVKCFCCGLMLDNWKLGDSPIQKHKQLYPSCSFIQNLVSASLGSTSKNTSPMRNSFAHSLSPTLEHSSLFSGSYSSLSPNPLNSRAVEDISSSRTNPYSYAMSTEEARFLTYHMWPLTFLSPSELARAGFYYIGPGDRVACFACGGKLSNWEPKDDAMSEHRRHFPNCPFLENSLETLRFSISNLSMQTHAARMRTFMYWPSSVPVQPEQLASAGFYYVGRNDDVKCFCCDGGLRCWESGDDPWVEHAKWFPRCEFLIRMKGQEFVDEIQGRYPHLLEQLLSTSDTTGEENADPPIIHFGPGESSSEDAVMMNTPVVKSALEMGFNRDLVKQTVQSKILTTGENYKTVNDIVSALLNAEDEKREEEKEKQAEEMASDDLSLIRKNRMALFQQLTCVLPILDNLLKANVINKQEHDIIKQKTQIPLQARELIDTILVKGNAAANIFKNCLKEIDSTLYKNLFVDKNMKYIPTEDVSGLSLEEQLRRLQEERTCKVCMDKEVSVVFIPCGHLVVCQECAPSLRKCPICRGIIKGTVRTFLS
Description: as §1

[5] = biological target: T2, GST-XIAP (Homo sapiens, UniProt P98170); assay: In vitro GST pull down; format: binding; details: recombinant proteins
T2 construct: made in house
T2 sequence (P98170 whole entry): as the sequence (P98170 whole entry, the tested form may be a part) above
Description: FIG. 12 illustrates the identification of the proteolytic form of PGAM5 as an XIAP and cIAP1 substrate in vitro. […] Overall, 15 unique peptides from PGAM5 were recovered and account for 43% of the entire protein sequence. (B) An example of LC-MS/MS spectrum from endogenous PGAM5 N-terminal peptide after subtiligase labeling and positive enrichment. A non-natural amino acid, 2-aminobutyric acid (Abu), is a designed tag showing characteristic labeling by subtiligase. (C) PGAM5 is cleaved into a truncated form in cells. Jurkat cells were transiently transfected with C-terminal Myc tagged full length PGAM5 or PGAM5 (Δ2-24). […] (D) N-terminal amino acid sequence alignment of PGAM5(Δ24) and other known evolutionarily conserved IBM sequences. Reaper, Hid, and Grim are Drosophila proteins that bind DIAP1, the Drosophila IAP. Amino acids are colored according to their chemical properties. (E) XIAP binds PGAM5(Δ24) but not the full length PGAM5. Recombinant GST fused XIAP, PGAM5(FL), and PGAM5(Δ24) were used for in vitro GST pull down experiments. (F) PGAM5(Δ24) binds to XIAP and cIAP1 independent of the RING domain. […] The resins were washed and proteins were eluted and analyzed with SDSPAGE and coomassie blue staining. […] The ubiquitination assay was performed in vitro and PGAM5 is detected with an anti-His antibody.

[6] = biological target: T1, cIAP1; assay: Co-immunoprecipitation in HEK293 cells; format: cell-based; details: Flag-cIAP1 co-transfection, anti-Myc IP
Procedure: FIG. 13 illustrates functional studies of PGAM5 in cells. (A) PGAM5(Δ24) binds XIAP and cIAP1 in vivo. On the left, HEK293 cells were cotransfected with Flag-cIAP1 and PGAM5(FL)-Myc or PGAM5(Δ24)-Myc. Total cell lysates were analyzed by immune-blotting with anti-Flag and anti-Myc antibodies (bottom two panels). Anti-Myc immune-precipitates (IP) were subjected to immunoblot analysis using anti-Myc and anti-Flag antibodies (top two panels). On the right, PGAM5(Δ24)-Myc was transiently expressed in HEK293 cells. 36 hours after transfection, cells were lysed and subjected for Immuno-precipitation with either anti-Myc antibody or an isotype control antibody (mouse IgG). Proteins in the whole cell lysate (bottom three panels) and proteins that bind to the antibody conjugated sepharose beads (top three panels) were assayed with immunoblotting. An asterisk indicates the position of the immunoglobulin heavy chain. (B) XIAP and cIAP1 stimulate PGAM5(Δ24) ubiquitination in vivo. […] 24 hours after transfection, cell viability was measured by Annexin V staining. […] Error bars represent SEM calculated from triplicate experiments. […] Cell viability is then immediately measured by CellTiter-Glo luminescent assay. […] PGAM5 levels are analyzed with anti-Myc immune-blotting before STS treatment. Error bars represent SEM calculated from triplicate samples. […]

Molecule: CC(C)C[C@@H](C=O)NC(=O)[C@H](CC(C)C)NC(=O)[C@H](CC(C)C)NC(=O)OCc1ccccc1 [MG132] (Cbz-Leu-Leu-Leu-aldehyde)
level of ubiquitination of PGAM5(Δ24) [1]: increased

Molecule: CN[C@@H]1C[C@H]2O[C@@](C)([C@@H]1OC)n1c3ccccc3c3c4c(c5c6ccccc6n2c5c31)C(=O)NC4 [STS, staurosporin]
cytosolic level of PGAM5(Δ24) [2]: significant increase in PGAM5(Δ24)

ubiquitination by XIAP [3]: ubiquitinates
ubiquitination by cIAP1 [4]: ubiquitinates
binding to XIAP (pull down) [5]: pulled down
binding to cellular cIAP1 [6]: specifically binds
B1: PGAM5(Δ24): cleaved form of PGAM5 lacking the first 24 residues, neo-IBM sequence starting with Ala25 (protein, UniProt Q96HS1 25-289, looked up, fragment)
chain: AVAVGKPRAGGDAEPRPAEPPAWAGGARPGPGVWDPNWDRREPLSLINVRKRNVESGEEELASKLDHYKAKATRHIFLIRHSQYHVDGSLEKDRTLTPLGREQAELTGLRLASLGLKFNKIVHSSMTRAIETTDIISRHLPGVCKVSTDLLREGAPIEPDPPVSHWKPEAVQYYEDGARIEAAFRNYIHRADARQEEDSYEIFICHANVIRYIVCRALQFPPEGWLRLSLNNGSITHLVIRPNGRVALRTLGDTGFMPPDKITRS
